Measured values from patent US11945858B2, “Antibodies and antibody fragments against HNAV1.7 channel and their use in pain and cancer indications” (NATIONAL RESEARCH COUNCIL OF CANADA, priority 2018, dated 2024).
Entries after “also recorded” stand apart in the source; their conditions may differ.

Columns and labels:
CHO-3E7 = experiment: Cell-ELISA on live CHO-3E7 cells; assay type: cell-based, Chinese hamster; settings: hybridoma supernatant, OD450 nm
Method: Cell-ELISA. Sterile 96-well plates (Costar #3595) were pre-treated with 50 μl/well of branched polyethyleneimine (PEI, Sigma Cat #408727) at 25 μg/ml in PBS for 30 min at room temperature. PEI was removed and CHO-3E7 or hNAv1.7-CHO (ChanTest cat #CT4003) were seeded at 6×10^5 cells per well in FreeStyle F17 Expression Medium (Gibco Cat #A1383501) and incubated overnight at 37° C., 5% CO2. Microplates were blocked with Starting block (Thermofisher Cat #37538) for 30 min at room temperature, and 50 μl of hybridoma supernatants were added and incubated at 4° C. for 3 h. Plates were washed 5 times with PBS and incubated for one hour at 4° C. with 50 μl of secondary antibody HRP-conjugated F(ab′)2 goat anti-mouse IgG (H+L) (Jackson Immunoresearch #115-036-062) diluted 1/5000 in blocking buffer. After 10 washes with PBS, 50 μl of TMB substrate solution (Pierce Cat #34021) was added and further incubated for 60 min at room temperature. Twenty-five μl/well of stop solution ([…] 1M) was added and OD450 nm measurements were done using a microplate reader (Spectramax 340 PC, Molecular Devices).

hNav1.7 channels = hNav1.7 channels (Homo sapiens, UniProt Q15858, W1161R); experiment: Patch-clamp whole-cell recordings in hNav1.7-HEK293 cells; assay type: cell-based
[1] = test system: CFA-induced thermal hyperalgesia; experiment: Hargreaves Model of Hyperalgesia in rats; assay type: in vivo, rat; settings: for Maximum percentage of the effect (% Effect; % MPE): time of maximum (1, 2 or 4 h)
Method: Hargreaves Model of Hyperalgesia in rats. Rats aged 4-6 weeks (weight range, 180-220 g) were used for intraplantar (ipl) administrations of various antibodies and evaluation of their efficacy in the Hargreaves model of inflammatory pain. Chronic inflammatory pain is induced by injecting a low volume (50 μl) of complete Freund's adjuvant (CFA; heat-killed M. tuberculosis—Sigma, St. Louis, Mo.—suspended in oil:saline 2:1 emulsion) into the right hind paw. The paw withdrawal latency in response to the application of a radiant stimulus onto the plantar surface of both right and left paw was measured using the plantar Analgesia Meter equipment for paw stimulation (IITC Life Science, Woodland Hills, Calif.). The time taken by the animal to respond by licking or flicking its paw is interpreted as positive response (paw withdrawal latency). After 48 h of the CFA injection, the baseline for latency paw withdrawal was measured and the mAbs tested. […] A cut-off time (20 sec) is established at the end of which the heat source shuts off automatically to avoid tissue damage. Animals were kept (randomized) one per cage and staff performing pain experiments are blinded to the content of injectable compounds. Percentage of maximum possible effect (% MPE) was calculated using the formula % MPE=(Test Latency−Baseline Latency)×100/(Cut-off−Baseline Latency).

[2] = test system: OD1-evoked Nav1.7-mediated spontaneous pain behaviours; assay type: in vivo, mouse; settings: 100 μg, injected 60 minutes prior to OD1; 20 min after the injection
FC5DIE3IR [3] = biological target: T1, FC5DIE3IR (Homo sapiens, UniProt Q15858); experiment: Surface Plasmon Resonance of mAbs, FC5DIE3IR; assay type: binding
T1 construct: The supernatant was collected and loaded on a 5 ml MabSelect™ SuRe™ column; made in house; host or cells: CHO-3E7 (transient, pTT5 vector), purified from supernatant
Method: (§1) Surface Plasmon Resonance of mAbs. FC5 and FC5DIE3IR proteins were SEC purified using a Superdex 75 column (GE Healthcare) connected to an AKTAPurifier (GE Healthcare) in HBS-EP+ running buffer (10 mM HEPES, pH 7.4, containing 150 mM NaCl, 3 mM EDTA and 0.05% P20) at a flow rate of 1 ml/min. Monomeric eluted peaks were used to flow over Fc-capture 3A8 mAb surfaces. To prepare the 3A8 mAb surfaces, approximately 6000 RUs of anti-mouse IgG (GE Healthcare) was first immobilized on CM5 Series S sensor chips (GE Healthcare) at pH 5.0, using standard amine coupling methods previously reported (Hussack et al., 2011) and according to the manufacturer's instructions (GE Healthcare). HBS-EP running buffer used for SPR experiments. The mAb 3A8 was captured on the anti-mouse IgG surface using 10 μg/ml of mAb, 30 sec contact time and flow rate of 10 μl/min. IMAC-purified DI-D VHH was passed through a Superdex 75 (GE Healthcare) column for SEC purification in HBS-EP buffer (10 mM HEPES, pH 7.4, containing 150 mM NaCl, 3 mM EDTA and 0.005% P20), connected to an AKTAPurifier (GE Healthcare) at a flow rate of 1 ml/min. Test binding experiments of FC5 control and FC5DIE3IR involved flowing 1 μM concentrations of SEC-pure material over the mAb surface at a flow rate of 30 μl/min for 5 min. Surfaces could be regenerated using 10 mM glycine, pH 1.7, with a 120 sec pulse at 20 μl/min. All SPR experiments were evaluated with Biacore T200 Software v 3.0. For kinetic analysis, single cycle kinetic analysis was used by flowing a range of FC5DIE3IR concentrations (320 nM-20 nM) at a flow rate of 30 μl/min, with 600 sec contact time and 1200 sec dissociation. Regeneration conditions were the same as above. Data were fit to a 1:1 binding model and analyzed using the Biacore T200 Software v3.0.
(§2) Surfaces were regenerated by washing with running buffer (HBS-EP). Data were analyzed with BIAevaluation 4.1 software as described (Hussack et al., 2011) and affinities determined using the steady state binding model.
(§3) Surface Plasmon Resonance (SPR) for monoclonal antibodies.

VHH FC5 = experiment: Surface Plasmon Resonance of mAbs, FC5 control; assay type: binding; settings: SPR; 25 °C
Sequence of VHH FC5 (as listed by the source): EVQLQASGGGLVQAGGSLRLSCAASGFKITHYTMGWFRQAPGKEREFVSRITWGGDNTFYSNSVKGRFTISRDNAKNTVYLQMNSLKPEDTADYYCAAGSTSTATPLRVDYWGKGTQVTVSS
Method: as §1, §2, §3

[4] = test system: overlapping antigen-peptides derived from DIE3IR; experiment: ELISA of mAbs on overlapping antigen-peptides derived from DIE3IR; assay type: binding, human; settings: peptides coated 100-500 ng/well
Method: The peptides were custom-synthesized (Biomatik) and tested for antibody binding by ELISA. […] The wells were blocked with 1% BSA in TBS-T for 30 min and then incubated with 1:1000 dilution of anti-hNav1.7 mAb at room temperature (RT) for one hr. Following three TBS-T washes (3×5 min), mAb binding to peptides was detected by incubating with HRP-conjugated anti-mouse Fc antibody for 90 min at RT in TBS-T. The bound antibody was detected with SureBlue™ TMB reagent kit (KPL) by colorimetric measurement at 450 nm according to manufacturer's instructions.
To identify the epitope for mAb 3A8 on DIE3IR, seven overlapping antigen-peptides were generated (FIG. 15A) and an ELISA was performed to determine the binding between these peptides and the various mAb (FIGS. 15C to 15I).

FC5DIE3IR [5] = biological target: T1, FC5DIE3IR; experiment: Hydrogen-Deuterium Exchange Mass Spectrometry (HDX-MS); assay type: binding; settings: labelling 1, 10 and 60 min
glioblastoma U87MG cells = experiment: Soft agar assay, U87MG; settings: mAb 1 μM
[6] = test system: ovarian cancer SKOV-3 cells; experiment: Soft agar assay, SKOV-3; settings: mAb 1 μM; FIG. 24D
[7] = test system: glioblastoma U87MGvIII cells; experiment: Soft agar assay, U87MGvIII; settings: mAb 1 μM; FIG. 24C
[8] = −20 mV, after antibody application (1 μM)

Row | Molecule | ELISA on live cells (duplicates) CHO-3E7 (CHO-3E7; duplicate 1) | ELISA on live cells (duplicates) CHO-3E7 (CHO-3E7; duplicate 2) | Percentage of effect after injection (on left paw withdrawal) ([1]; 100 μg intraplantar, 0 h) [%] | Latency paw withdrawal ([1]; 100 μg intraplantar, 1 h) [s] | Percentage of effect after injection (on left paw withdrawal) ([1]; 100 μg intraplantar, 1 h) | Percentage of effect after injection (on left paw withdrawal) ([1]; 100 μg intraplantar, 2 h) | Percentage of effect after injection (on left paw withdrawal) ([1]; 100 μg intraplantar, 4 h) | Maximum percentage of the effect (% Effect; % MPE) ([1]; 100 μg intraplantar) [%] | Time spent in pain behaviors (saline plus OD1 = 100%) [2] | Binding to FC5 control (comment, in words) (VHH FC5) | Peptide in which the binding motif resides / that is bound [4] | further results
1 | 2G11: anti-hNav1.7 mouse monoclonal antibody, IgG2a, k; heavy chain SEQ ID NO: 117, light chain SEQ ID NO: 119 (antibody, V domains shown, Heavy chain of the 2G11 antibody without leader sequence; Light chain of the 2G11 antibody without leader sequence) VH: QVQLQQPGAELVKPGASVKLSCKASGYTFTTYWMHWVKQRPGQGLEWIGEINPSNGRANYNEKFKSKATLTVDKSSSTAYMQLSSLTSEDSAVYYCLRSLGYFDYWGQGTTLTVSSAKTTAPSVYPLAPG VL: DVVMTQSPLSLPVSLGDQASISCRSSQSLVHSNGNTYLHWYLQKAGQSPKFLIYKVSNRFSGVPDRFSGSGSGTDFTLKISRVEAEDLGVYFCSQSTHVPYTFGGGTKLEIKRADAAPTVSIFPPSS | −0.027 | −0.025 | 0 | 8.80 ± 1.02 | 27.98% ± 7.17 | 22.02% ± 2.08 | 25.80% ± 2.82 | 27.98±7.17 | 63.47±4.78% | did not bind; also recorded: No binding | pep #40a | Voltage-dependence of activation (shift V1/2 activation) (hNav1.7 channels; 1 μM): −4.7 mV; Voltage-dependence of the steady-state fast inactivation (shift V1/2 inactivation) (hNav1.7 channels; 1 μM): −13.9 mV; Onset time of the effect (exponential fit of the current decay, T) (hNav1.7 channels; 2 μM, single time-course recording of the figure): 57 s; Effect on hNav1.7 currents (in words) (hNav1.7 channels; example recordings, 1-3 μM): reduced the hNav1.7 currents; Fast inactivation (time constant) (hNav1.7 channels; [8]): 0.81 ms; Time-to-peak (hNav1.7 channels; [8]): 0.87 ms; Latency paw withdrawal ([1]; 100 μg intraplantar, 2 h): 7.86 ± 0.33 s; Latency paw withdrawal ([1]; 100 μg intraplantar, 4 h): 8.45 ± 0.44 s; Latency paw withdrawal ([1]; intraplantar, mAbs 100 μg, 11E5 dose not stated, time not given): 8.45 ± 0.44 s; ka (FC5DIE3IR [3]): 9560 M⁻¹ s⁻¹; kd (FC5DIE3IR [3]): 0.000526 s⁻¹; Rmax (RU) (FC5DIE3IR [3]; Fc-captured mAb, FC5-DIE3IR flowed, 25 °C): 84 RU; Binding to FC5DIE3IR (comment, in words) (FC5DIE3IR [3]; SPR, 25 °C): strong and specific binding; also recorded: strongly and specifically bound; Stabilization of FC5DIE3IR in response to mAb binding (residues, differential HDX-MS) (FC5DIE3IR [5]): Asn121-Tyr134; Reduction of colony formation (glioblastoma U87MG cells; different experiment, FIG. 24B): 60%
2 | 1H5: anti-hNav1.7 mouse monoclonal antibody, IgG1, k; heavy chain SEQ ID NO: 121, light chain SEQ ID NO: 123 (antibody, V domains shown, Heavy chain of the 1H5 antibody without leader sequence; Light chain of the 1H5 antibody without leader sequence) VH: EVKLVESGGGLVKPGGSLKLSCAASGFTFRSYAMSWVRQTPEKGLEWVASISSGGSTYYPDSVKGRFTISRDNAGNILYLQMSSLRSEDTAMYYCARGYDGYYERIWYYAMDYWGQGTSVTVSSAKTTPPSVY VL: DIVMTQSQKFMSTSVGDRVTVSCKASQNVGTIVAWYQQKPGQSPKALIYSASYRFSGVPDRFTGSGSGTDFTLTISNVQSEDLAEYFCQQYNTYPLTFGSGTKLEIKRADAAPTVSIFPPSS | −0.014 | 0.029 | 0 | 7.97 ± 0.61 | 21.85% ± 3.71 | 35.23% ± 0.88 | 31.20% ± 5.18 | 35.23±0.88 | 73.84%±16.78 | No binding | Pep #3 | Reduction of colony formation (glioblastoma U87MG cells; FIG. 24A): 37%; Reduction of colony formation [6]: 57%; Reduction of colony formation [7]: 60%
